Laboratory results reported in the DeepSol protein solubility set.

assay: soluble on expression in E. coli; label from the status in PepcDB or PDB records

| Sequence | soluble on expression in E. coli |
| --- | --- |
| MKWEMGLQEEYIELIKAGKKKIEGRLYDEKRRQIKPGDIIIFEGGKLKVKVKGIRVYSSFKEMLEKEGIENVLPGVKSIEEGVKVYRQFYDEEREKKYGVVAIEIEPIE | soluble |
| MKWPWWPVCVPLSKRLTLPLPSTANPVVQPSRLALACANRLFEAADNRERFLQALMTPPAYPATVLWCGEPAAALPFAALPPLPWQPPWVSRFVAGSPTGQHPLHAAGAYYCLDSSSVFAAVPLLTLPQEPSLVIDVCAAPGGKSLFAWRSLHPRYLICNETIGKRVGKLIGNLKRCRVHPVGVTSWDSEVLAAEFQGTADVVIVDAPCSGQSLLAKGQKAEGCFHPLTIRHNQRRQKRILAAATTLVRPGGWLLYSTCTFSQDENEDVAAWLMAKFPHLLPQPVPALAAYQSHLAAFPCYRLWPHQGEGAGAFTILWQHQGLEHHHHHH | soluble |
| MKYQLTALEARVIGCLLEKQVTTPEQYPLSVNGVVTACNQKTNREPVMNLSESEVQEQLDNLVKRHYLRTVSGFGNRVTKYEQRFCNSEFGDLKLSAAEVALITTLLLRGAQTPGELRSRAARMYEFSDMAEVESTLEQLANREDGPFVVRLAREPGKRENRYMHLFSGEVEDQPAVTDMSNAVDGDLQARVEALEIEVAELKQRLDSLLAHLGD | soluble |
| MLACSFKAVNGGFRHLLIRMIIDPPHHLFDTALARQIAIHILHYQFEVTRPRLVAMQEHERTAVARSLRTINRRLEEPVFAKAYRRWAGRDGTVSRDCFKFDCCA | not soluble |
| MLAIFHEAFAHPPEELNSPASEKCSKQPKLPEETLNDFLLRYPLNTFSMSFGQAAVLAYVRPSASFSIHQRLFCGFDDIYCLFFGSLNNLCQLNKQYGLTKTTNEAMFVIEAYRTLRDRGPYPADQVVKDLDGSFSFVVYDSKAGSVFTALVLIHKISPRLLELNFNGSDGGVKLYWGIAADGSVVISDDLDVIKEGCAKSFAPFPTGCMFHSEGGLMSFEHPMNKIKAMPRVDSEGVLCGANFKVDVYNRVNSIPRRGSEANWSL | soluble |
| MLAQLTISNFAIVRELEIDFHSGMTVITGETGAGKSIAIDALGLCLGGRAEADMVRTGAARADLCARFSLKDTPAALRWLEENQLEDGHECLLRRVISSDGRSRGFINGTAVPLSQLRELGQLLIQIHGQHAHQLLTKPEHQKFLLDGYANETSLLQEMTARYQLWHQSCRDLAHHQQLSQERAARAELLQYQLKELNEFNPQPGEFEQIDEEYKRLANSGQLLTTSQNALALMADGEDANLQSQLYTAKQLVSELIGMDSKLSGVLDMLEEATIQIVEASDELRHYCDRLDLDPNRLFELEQRISKQISLARKHHVSPETLPQYYQSLLEEQQQLDDQADSQETLALAVTKHHQQALETARALHQQRQHYAEELAQLITDSMHALSMPHGQFTIDVKFDEHHLGADGADRIEFRVTTNPGQPMQPIAKVASGGELSRIALAIQVITARKMETPALIFDEVDVGISGPTAAVVGKLLRQLGESTQVMCVTHLPQVAGCGHQHYFVSKETDGAMTETHMQSLNKKTRLQELARLLGGSEVTRNTLANAKELLAA | not soluble |
| MLAVSSAIVSSAMYILSFPGQASGITKEQVTKHMKKESFKQADIYYTSKEKSLLPLTKETLEYAVSINQIMIGYSNQKPIDIIFFLMKNRWRLTPVYWMLEHHHHHH | not soluble |
| MLAVVDEEGTPVAGAMGFAQVVRDGLVVDYIGAVDILRELKATLEESLGAELLKAGVAYPPGTSPGDQKALHYIAEAAGFNVIAALDEPTAANNVLNIEDGAVIDIGGGTTGTAVIGQGQVVCVADEPTGGTHVSLVIAGAYRLPFAEAEKLKMDSCKHQELLPIIKPVIEKIAGIIRQHIQEHPVDQVYLVGGTSCFTGFETIVAAELQRPVIKPANPFLVTPLGIALAAAKTCSNP | not soluble |
| MLDEKASEEEIKAMFLMLSGGLKSQPGEDEKATAVAYLFSLDGLSRWAIKTATRDVMKGKAEGLSTTFMPASADLLLYCEKLEDDIRTTVKGIFTSLDRPEIKPKGEPISAEKWDKLMQMLEKPKIGLNPFQ | not soluble |
| MLDKLDAALRFQQEALNLRAQRQEVLAANIANADTPGYQARDIDFASELKKVMQRGRDATSVVALTMTSTQHIPAQALTPPTAELQYRIPDQPSLDGNTVDMDRERTQFADNSLQYQMSLSALSGQIKGMMNVLQSGN | not soluble |
| MLDLVNQLELDSQMKQFKLVSQMTRQDVIILDEPGYLPFSQKRGALLFHLMSQLHENTSVIITTNLEFSEWGTLFTEAKMTNALLDRLIHHCHMLETGNESYRFKHRNLEHHHHHH | not soluble |
| MLDTAAIIISQGKKIAYAYAEGVNDNMTQSHFHDFFELYYLLEGERMHMIEGEIYHLTANDFVLFPPHIMHHSYGEKDMPFKRIVLYFSPDLIANDTICQLLSEKELLFVNEGYIPNQILSLLLSLTHEIDVPGKYHDAYICNQLNGLLLNMLRLDFEAVKSIPKTRSAKAVDYIHNHYMEDISVNQLAEILYVSPYHLCHEFKNATGKTIIQYLNTTRILHAQRLMLETDYNITQISREVGFSNLTHFNRTFKKITGVAPREKKKLYQK | not soluble |
| MLDWEQIFATRSSRMKASEIRELLKLLEQPDIISFAGGIPDPALFPAEEFQQAYAEIFSGAQVNAALQYSVSEGYKPLREWLAGEMDKIGIDCTADNVFIVSGSQQGLDYLGKLFLSPKDTALVTWPTYLGALSAFNAYEPNYDQLNPGGNRTPEAYRETAAKLGGAVKFAYLSADFSNPTGETVDLAGREKVLALADELDIAVIEDAAYQSLRYDGEAVPPIMALDIARSGGIENTRTIYCGSFSKTLAPGLRVGYIVASAPVIRKLVLMKQAADLHSSTINQIAIERVAARGFDKQVAKIKAAYSARRDAMLSALEKYMPKTTSWTKPEGGMFIWVTLPEGMDGAALLAKSIATEKVAFVPGRAFFADGSGTNTLRISFSCANEAMIEEGMKRLGRLITTAQAETTEVLAAI | not soluble |
| MLEQLPYLALKTPPKTTALLKAECADFIVKEHLGYEMSGDGEFVALYVRKTDCNTLFVGEKLAKFAGVSERNMGYAGLKDRRAVTEQWFCLQMPGMETPDFSQFELDGVEILTVTRHNRKIRTGSLEGNYFDILLRGAEESDELKARLDFVANFGFPNYFTEQRFGRDGHNLTQALRWAQGEIKVKDRKKRSFYLSAARSEIFNLVVAARIEKSTINQVLPNDIVQLAGSHSWFKADEKEDLTALQVRLENQDILLTAPLIGEDILAASEIENEIVNQHSAFDPLMKQERMKAARRPLLMKAKGFSWAFEPEGLRLKFYLPAGSYATALVRELVNYTEE | soluble |
| MLESNENRIQIMSTIAKIYRAMSRELNRRLGELNLSYLDFLVLRATSDGPKTMAYLANRYFVTQSAITASVDKLEEMGLVVRVRDREDARKILIEITEKGLETFNKGIEIYKKLANEVTGDLSEDEVILVLDKISKILKRIEEISQ | soluble |
| MLETKDLNLFLGNKHVLKNISLSIPVRGEIIGIMGPNGAGKSSLIKSLIGEFNATGTKLLYNKPIQQQLQHITYIPQKAHIDLDFPISVEQVILSGCYKEIGWFRRPNKSARDKLKQLLSDLELESLRHRQISELSGGQLQRVLVARALMSESEVYFLDEPFVGIDFSSEKLIMTKIENLKQQGKLILIIHHDLSKAKQYFDRIILLNQTLRYFGDSEEAMSVTRLNETFMSSTDCSDPSQRSNITC | not soluble |
| MLEVIATCLEDVKRIESAGGKRIELISSYTEGGLTPSYAFIKKAVEVVSIPIHVMIRPHAKSFTYTEEEIEMMKEDIIVAQKLGAAGVVLGVLNERNEVDEEKLADLLSVVDGINVTYHRAIDDIKNPVEAMSTLKKFHKVTHVLTSGGQGNIVENIPVLTEMQKVSEGQIQLVAGAGVTKENIKRLLDETGITQAHVGTAVREGKSCFSEIDPNLVQELVEIIKLEHHHHHH | soluble |
| MLEYKLIRSKRRKTLALQVKHGQVTVRAPHYVTSAFIDTFIQEKSAWLRSKLAEQQKTPEYCDFSQGSNLLYLGEKVILNICIAKKSEVYFSHLVIAEIEPKNYQEITTKQLNVAISEKIHSRLINPLAISKQIKKQLEVYFKQQAEQLFSERLERISKQISLCPTAINIRQYRARWGSCNNRGEVSFNYLLMMTPLTVIDYVIVHELCHLEHLNHSKEFWHLVEKFCPNYEIAKKWLNTYQSLEHHHHHH | soluble |
| MLFLFVDGLGLGGALEDLFPFLLALAPTPLDATLGVEGLPQSGTGQTALLTGENAARLLGHHQGPFPSPRLRPLLAQGLYAWAKGKGLRVLHANGYRPDYLRRATEGKRLLLSAFAQAARLAGIPLLPLGHPLALLPGFWEDPYGAGAKAAALARAFDLVVLEYWALDLAAHRHPESLPDRFRELTLFLQGFLAEGGVLLLASDHGNAEEPWHPRHTLNPVPLVYTEEAPPPPEDLTGVFPWLRTIITSKTNKSDRNT | soluble |
| MLFLPILILNLLIITHAIDIIPREVLFQDPKYSSVSLSPDAKQVGYVAPDENGIRNVFTRCSSCSYSRQVTFETEHPILNYVWTAIPDVILFTQDNHGDENTRIYKKNISATAIAADKTQRVVISEKPMVKAMILSNNLISETVLIGMNDENPALHNIYAFNCQTDELKLVLQNRRFSIFFFDNDLNVRLASEEGPDGEMIYYRPRSNEGARTTEQNTWVEYLRIQHDDKAITMPITFDKSNNFMYWIMGDGSDLGNLVVFPFEDPQQKEILYTAQRAQIGNVLIHPTDKTLLAVTEVYHKPELFVANETFMEDLQYLVNMKPSGSMNIVSMSIDMSTWLVTYSSSDEPYDIYLYRRWNKKAELFMSTRPELKKYTLNKQIGFDFRARDEMTIQAYLSLPPQAPLLKSSQVPDGDRPYANLGMIPAVPQKMIVLVHGGPKARDHYGFSPMNAWLTNRGYSVLQVNFRGSTGFGKRLTNAGNGEWGRKMHFDILDAVEFAVSKGIANRSEVAVMGGSYGGYETLVALTFTPQTFACGVDIVGPSNLISLVQAIPPYWLGFRKDLIKMVGADISDEEGRQSLQSRSPLFFADRVTKPIMIIQGANDPRVKQAESDQFVAALEKKHIPVTYLLYPDEGHGVRKPQNSMEQHGHIETFLQQCLGGETQPFQPGQYNSSAIIKKIGIEGAAIARQNLQIAQNQFAQQLPRGPVAPSIFYRPPVRAQRVMLAPNQNVMNRIFPVQG | soluble |
| MLGAIIGDIVGSVYEWNNIKTKDFPLFRKDCFFTDDTVMTCAVAEAIMNGGQKDDFIDAMKKYGRMYPNADYGARFNAWLNSDNREPYNSFGNGSAMRISPCAWIMDCGFYAKTGIWPSSRGLTSLSAEVTHNHPEGVKGAMATADAIFLCRFYFGGYCREYEQSINDNPTECKRRIKDYIEKEYDYNLSQTLDEIRPNYRFNETCQETVPQAIIAFLESRDFEDAIRNAISLGGDSDTLAAITCSIAEAAYGIPDWIKDKAYSYLDEPLKDVVRRWENRIKAY | not soluble |
| MLGKDYMLAIILVNCDDDLWGDHSLEVEAGLPPGWRKIHDAAGTYYWHVPSGSTQWQRPTWELGDAEDPGTGTEGIWGLRPPKGRSFSSLESSLDRSNSLSWYGGESYIQSMEPGAKCFAVRSLGWVEVPEEDLAPGKSSIAVNNCIQQLAQTRSRSQPPDGAWGEGQNMLMILKKDAMSLVNPLDHSLIHCQPLVHIRVWGVGSSKGRDRDFAFVASDKDSCMLKCHVFCCDVPAKAIASALHGLCAQILSERVEVSGDASCCSPDPISPEDLPRQVELLDAVSQAAQKYEALYMGTLPVTKAMGMDVLNEAIGTLTARGDRNAWVPTMLSVSDSLMTAHPIQAEASTEEEPLWQCPVRLVTFIGVGRDPHTFGLIADLGRQSFQCAAFWCQPHAGGLSEAVQAACMVQYQKCLVASAARGKAWGAQARARLRLKRTSSMDSPGGPLPLPLLKGGVGGAGATPRKRGVFSFLDAFRLKPSLLHMP | soluble |
